T1: G9a and GLP (Homo sapiens, UniProt Q96KQ7+Q9H9B1)
T1 sequence (Q96KQ7 2-1210 limits assumed): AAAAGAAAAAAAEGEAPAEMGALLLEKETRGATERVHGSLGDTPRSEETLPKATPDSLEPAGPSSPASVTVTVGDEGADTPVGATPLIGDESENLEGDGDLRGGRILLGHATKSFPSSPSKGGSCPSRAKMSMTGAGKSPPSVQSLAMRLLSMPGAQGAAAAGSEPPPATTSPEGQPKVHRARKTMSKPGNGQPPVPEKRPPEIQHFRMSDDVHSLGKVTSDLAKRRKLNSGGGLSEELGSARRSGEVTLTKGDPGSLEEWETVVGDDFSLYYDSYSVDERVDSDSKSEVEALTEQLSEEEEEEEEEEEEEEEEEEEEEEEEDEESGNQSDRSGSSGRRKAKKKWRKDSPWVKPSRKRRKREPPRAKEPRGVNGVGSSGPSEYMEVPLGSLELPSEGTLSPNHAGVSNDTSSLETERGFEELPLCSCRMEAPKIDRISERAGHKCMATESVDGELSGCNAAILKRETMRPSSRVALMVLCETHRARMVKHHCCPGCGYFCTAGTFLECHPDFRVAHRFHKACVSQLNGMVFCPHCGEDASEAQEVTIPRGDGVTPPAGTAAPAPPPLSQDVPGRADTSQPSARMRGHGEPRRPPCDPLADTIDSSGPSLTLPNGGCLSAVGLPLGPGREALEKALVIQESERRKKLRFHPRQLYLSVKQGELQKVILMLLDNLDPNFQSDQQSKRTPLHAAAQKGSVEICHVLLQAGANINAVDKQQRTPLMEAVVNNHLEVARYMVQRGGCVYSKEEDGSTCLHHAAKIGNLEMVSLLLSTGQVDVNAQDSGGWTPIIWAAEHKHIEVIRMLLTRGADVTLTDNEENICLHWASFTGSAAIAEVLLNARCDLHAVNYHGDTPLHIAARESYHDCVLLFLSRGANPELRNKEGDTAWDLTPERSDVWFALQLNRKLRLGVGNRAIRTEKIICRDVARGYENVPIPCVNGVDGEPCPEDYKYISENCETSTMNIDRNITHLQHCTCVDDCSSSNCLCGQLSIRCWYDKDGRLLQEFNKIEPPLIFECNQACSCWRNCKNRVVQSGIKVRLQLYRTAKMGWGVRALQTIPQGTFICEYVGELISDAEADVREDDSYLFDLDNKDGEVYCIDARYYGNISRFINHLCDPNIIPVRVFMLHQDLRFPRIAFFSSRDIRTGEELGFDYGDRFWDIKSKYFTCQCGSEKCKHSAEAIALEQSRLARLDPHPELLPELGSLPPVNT
T1 sequence (Q9H9B1 2-1298 limits assumed): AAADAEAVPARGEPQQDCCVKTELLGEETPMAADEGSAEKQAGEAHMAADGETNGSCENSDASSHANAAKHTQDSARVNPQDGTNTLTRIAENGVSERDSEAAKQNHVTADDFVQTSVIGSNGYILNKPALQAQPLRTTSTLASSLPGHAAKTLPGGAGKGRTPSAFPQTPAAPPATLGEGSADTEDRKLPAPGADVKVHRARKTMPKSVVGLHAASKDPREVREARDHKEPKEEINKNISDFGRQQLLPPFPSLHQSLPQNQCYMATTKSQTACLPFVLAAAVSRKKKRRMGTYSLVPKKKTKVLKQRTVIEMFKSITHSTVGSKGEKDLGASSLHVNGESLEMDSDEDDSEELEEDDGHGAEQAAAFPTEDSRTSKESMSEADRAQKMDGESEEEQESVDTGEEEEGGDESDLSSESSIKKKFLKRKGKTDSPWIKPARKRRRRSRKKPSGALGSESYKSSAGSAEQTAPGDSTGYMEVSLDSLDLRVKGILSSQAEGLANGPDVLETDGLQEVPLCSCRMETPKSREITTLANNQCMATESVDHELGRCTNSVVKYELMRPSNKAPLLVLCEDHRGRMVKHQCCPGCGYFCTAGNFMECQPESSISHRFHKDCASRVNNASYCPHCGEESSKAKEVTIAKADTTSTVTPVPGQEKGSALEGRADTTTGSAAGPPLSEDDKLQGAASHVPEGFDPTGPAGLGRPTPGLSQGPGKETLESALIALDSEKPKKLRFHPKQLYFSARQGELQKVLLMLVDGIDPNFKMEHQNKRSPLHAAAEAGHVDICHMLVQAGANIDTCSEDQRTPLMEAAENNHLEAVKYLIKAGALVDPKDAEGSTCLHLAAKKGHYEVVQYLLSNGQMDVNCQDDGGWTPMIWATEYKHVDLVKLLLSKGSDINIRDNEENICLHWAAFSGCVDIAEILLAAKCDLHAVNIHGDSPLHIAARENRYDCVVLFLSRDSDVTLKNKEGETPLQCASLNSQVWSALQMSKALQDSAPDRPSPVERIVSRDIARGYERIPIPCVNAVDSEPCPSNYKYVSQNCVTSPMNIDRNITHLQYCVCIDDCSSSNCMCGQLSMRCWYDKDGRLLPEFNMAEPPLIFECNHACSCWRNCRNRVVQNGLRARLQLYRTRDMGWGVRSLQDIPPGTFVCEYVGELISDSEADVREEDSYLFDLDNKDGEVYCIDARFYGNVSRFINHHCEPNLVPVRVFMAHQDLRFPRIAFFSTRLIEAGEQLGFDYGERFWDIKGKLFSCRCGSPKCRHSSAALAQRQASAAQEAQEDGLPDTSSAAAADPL

B1: CAPRIN1 (protein, UniProt Q14444 2-709, looked up)
Caprin-1: PSATSHSGSGSKSSGPPPPSGSSGSEAAAGAGAAAPASQHPATGTGAVQTEAMKQILGVIDKKLRNLEKKKGKLDDYQERMNKGERLNQDQLDAVSKYQEVTNNLEFAKELQRSFMALSQDIQKTIKKTARREQLMREEAEQKRLKTVLELQYVLDKLGDDEVRTDLKQGLNGVPILSEEELSLLDEFYKLVDPERDMSLRLNEQYEHASIHLWDLLEGKEKPVCGTTYKVLKEIVERVFQSNYFDSTHNHQNGLCEEEEAASAPAVEDQVPEAEPEPAEEYTEQSEVESTEYVNRQFMAETQFTSGEKEQVDEWTVETVEVVNSLQQQPQAASPSVPEPHSLTPVAQADPLVRRQRVQDLMAQMQGPYNFIQDSMLDFENQTLDPAIVSAQPMNPTQNMDMPQLVCPPVHSESRLAQPNQVPVQPEATQVPLVSSTSEGYTASQPLYQPSHATEQRPQKEPIDQIQATISLNTDQTTASSSLPAASQPQVFQAGTSKPLHSSGINVNAAPFQSMQTVFNMNAPVPPVNEPETLKQQNQYQASYNQSFSSQPHQVEQTELQQEQLQTVVGTYHGSPDQSHQVTGNHQQPPQQNTGFPRSNQPYYNSRGVSRGGSRGARGLMNGYRGPANGFRGGYDGYRPSFSNTPNSGYTQSQFSAPRDYSGYQRDGYQQNFKRGSGQSGPRGAPRGRGGPPRPNRGMPQMNTQQVN
B2: FTSJD2 (protein, UniProt Q8IYT2 1-770, looked up)
Cap-specific mRNA …: MSKCRKTPVQQLASPASFSPDILADIFELFAKNFSYGKPLNNEWQLPDPSEIFTCDHTELNAFLDLKNSLNEVKNLLSDKKLDEWHEHTAFTNKAGKIISHVRKSVNAELCTQAWCKFHEILCSFPLIPQEAFQNGKLNSLHLCEAPGAFIASLNHYLKSHRFPCHWSWVANTLNPYHEANDDLMMIMDDRLIANTLHWWYFGPDNTGDIMTLKFLTGLQNFISSMATVHLVTADGSFDCQGNPGEQEALVSSLHYCEVVTALTTLGNGGSFVLKMFTMFEHCSINLMYLLNCCFDQVHVFKPATSKAGNSEVYVVCLHYKGREAIHPLLSKMTLNFGTEMKRKALFPHHVIPDSFLKRHEECCVFFHKYQLETISENIRLFECMGKAEQEKLNNLRDCAIQYFMQKFQLKHLSRNNWLVKKSSIGCSTNTKWFGQRNKYFKTYNERKMLEALSWKDKVAKGYFNSWAEEHGVYHPGQSSILEGTASNLECHLWHILEGKKLPKVKCSPFCNGEILKTLNEAIEKSLGGAFNLDSKFRPKQQYSCSCHVFSEELIFSELCSLTECLQDEQVVVPSNQIKCLLVGFSTLRNIKMHIPLEVRLLESAELTTFSCSLLHDGDPTYQRLFLDCLLHSLRELHTGDVMILPVLSCFTRFMAGLIFVLHSCFRFITFVCPTSSDPLRTCAVLLCVGYQDLPNPVFRYLQSVNELLSTLLNSDSPQQVLQFVPMEVLLKGALLDFLWDLNAAIAKRHLHFIIQREREEIINSLQLQN
B3: HNRNPF (protein, UniProt P52597 1-415, looked up)
Heterogeneous nuclear …: MMLGPEGGEGFVVKLRGLPWSCSVEDVQNFLSDCTIHDGAAGVHFIYTREGRQSGEAFVELGSEDDVKMALKKDRESMGHRYIEVFKSHRTEMDWVLKHSGPNSADSANDGFVRLRGLPFGCTKEEIVQFFSGLEIVPNGITLPVDPEGKITGEAFVQFASQELAEKALGKHKERIGHRYIEVFKSSQEEVRSYSDPPLKFMSVQRPGPYDRPGTARRYIGIVKQAGLERMRPGAYSTGYGGYEEYSGLSDGYGFTTDLFGRDLSYCLSGMYDHRYGDSEFTVQSTTGHCVHMRGLPYKATENDIYNFFSPLNPVRVHIEIGPDGRVTGEADVEFATHEEAVAAMSKDRANMQHRYIELFLNSTTGASNGAYSSQVMQGMGVSAAQATYSGLESQSVSGCYGAGYSGQNSMGGYD
B4: UBA1 (protein, UniProt P22314 2-1058, looked up)
Ubiquitin-like …: SSSPLSKKRRVSGPDPKPGSNCSPAQSVLSEVPSVPTNGMAKNGSEADIDEGLYSRQLYVLGHEAMKRLQTSSVLVSGLRGLGVEIAKNIILGGVKAVTLHDQGTAQWADLSSQFYLREEDIGKNRAEVSQPRLAELNSYVPVTAYTGPLVEDFLSGFQVVVLTNTPLEDQLRVGEFCHNRGIKLVVADTRGLFGQLFCDFGEEMILTDSNGEQPLSAMVSMVTKDNPGVVTCLDEARHGFESGDFVSFSEVQGMVELNGNQPMEIKVLGPYTFSICDTSNFSDYIRGGIVSQVKVPKKISFKSLVASLAEPDFVVTDFAKFSRPAQLHIGFQALHQFCAQHGRPPRPRNEEDAAELVALAQAVNARALPAVQQNNLDEDLIRKLAYVAAGDLAPINAFIGGLAAQEVMKACSGKFMPIMQWLYFDALECLPEDKEVLTEDKCLQRQNRYDGQVAVFGSDLQEKLGKQKYFLVGAGAIGCELLKNFAMIGLGCGEGGEIIVTDMDTIEKSNLNRQFLFRPWDVTKLKSDTAAAAVRQMNPHIRVTSHQNRVGPDTERIYDDDFFQNLDGVANALDNVDARMYMDRRCVYYRKPLLESGTLGTKGNVQVVIPFLTESYSSSQDPPEKSIPICTLKNFPNAIEHTLQWARDEFEGLFKQPAENVNQYLTDPKFVERTLRLAGTQPLEVLEAVQRSLVLQRPQTWADCVTWACHHWHTQYSNNIRQLLHNFPPDQLTSSGAPFWSGPKRCPHPLTFDVNNPLHLDYVMAAANLFAQTYGLTGSQDRAAVATFLQSVQVPEFTPKSGVKIHVSDQELQSANASVDDSRLEELKATLPSPDKLPGFKMYPIDFEKDDDSNFHMDFIVAASNLRAENYDIPSADRHKSKLIAGKIIPAIATTTAAVVGLVCLELYKVVQGHRQLDSYKNGFLNLALPFFGFSEPLAAPRHQYYNQEWTLWDRFEVQGLQPNGEEMTLKQFLDYFKTEHKLEITMLSQGVSMLYSFFMPAAKLKERLDQPMTEIVSRVSKRKLGRHVRALVLELCCNDESGEDVEVPYVRYTIR

These molecules were tested against T1, G9a and GLP (assay: Triple SILAC pull-down after UNC0638 treatment of 293T cells, DMSO/UNC0638 ratio of protein captured by 3×MBT). Conditions: SILAC ratio DMSO/UNC0638 of protein pulled down with 3xMBT; UNC0638 in heavy SILAC media.
Format: cell-based
Parameters: endogenous in cells; host or cells: HEK 293T
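For Relative to UNC0638 Average in this document: mass spectrometry (Q-Exactive) SILAC quantitation, DMSO/UNC0638 ratio computed after subtracting 3×MBTD355N mutant pull-down background, only proteins with at least twofold 3×MBT over mutant signal considered.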
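For Relative to UNC0638 UNC Heavy in this document: mass spectrometry (Q-Exactive) SILAC quantitation, DMSO/UNC0638 ratio computed after subtracting 3×MBTD355N mutant pull-down background, only proteins with at least twofold 3×MBT over mutant signal considered.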
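For Relative to UNC0638 UNC Light in this document: mass spectrometry (Q-Exactive) SILAC quantitation, DMSO/UNC0638 ratio computed after subtracting 3×MBTD355N mutant pull-down background, only proteins with at least twofold 3×MBT over mutant signal considered.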

Row | Relative to UNC0638 UNC Heavy | Molecule
1 | −1.08 log base 2 | B1
2 | 0.09 log base 2 | B2
3 | 0.28 log base 2 | B3

Same assay, conditions: SILAC ratio DMSO/UNC0638 of protein pulled down with 3xMBT; UNC0638 in light SILAC media

Row | Relative to UNC0638 UNC Light | Molecule
4 | 1.34 log base 2 | B1
5 | 0.17 log base 2 | B2
6 | 0.13 log base 2 | B4
7 | −0.02 log base 2 | B3

Same assay, conditions: average of UNC Light and UNC Heavy experiments

Row | Relative to UNC0638 Average | Molecule
8 | 0.13 log base 2 | B1
9 | 0.13 log base 2 | B2
10 | 0.13 log base 2 | B4
11 | 0.13 log base 2 | B3

These molecules were tested on 3×MBT domain of L3MBTL1 (assay: Triple SILAC pull-down, 3xMBT/3xMBTD355N ratio (cytoplasmic, nuclear and chromatin fractions of 293T cells)). Conditions: SILAC ratio, pull-down 3xMBT vs 3xMBTD355N; experiment with UNC0638 in heavy SILAC media.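 Also: proteins quantified with MaxQuant, requiring at least two unique peptides and quantification in both label directions, normalized to the mean of proteins from a digested loading control.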
Format: binding, human

Row | Molecule | 3xMBT/D355N UNC Heavy
12 | B1 | 2.45 log base 2
13 | B2 | 2.92 log base 2
14 | B4 | 0.55 log base 2
15 | B3 | 1.66 log base 2

Same assay, conditions: SILAC ratio, pull-down 3xMBT vs 3xMBTD355N; experiment with UNC0638 in light SILAC media

Row | Molecule | 3xMBT/D355N UNC Light
16 | B1 | 4.36 log base 2
17 | B2 | 3.09 log base 2
18 | B4 | 2.51 log base 2
19 | B3 | 2.25 log base 2
